# Measured values from patent CN107840891A.
# Target: MSLN抗原 (Mesothelin, MSLN-Biotin) (human) (UniProt Q13421)
# Assay: BLI (Octet RED96), MSLN-Biotin on AR2G sensor, TG1 periplasmic scFv as analyte (表2.4)
# UniProt Q13421, sequence (Q13421 296-606 limits assumed): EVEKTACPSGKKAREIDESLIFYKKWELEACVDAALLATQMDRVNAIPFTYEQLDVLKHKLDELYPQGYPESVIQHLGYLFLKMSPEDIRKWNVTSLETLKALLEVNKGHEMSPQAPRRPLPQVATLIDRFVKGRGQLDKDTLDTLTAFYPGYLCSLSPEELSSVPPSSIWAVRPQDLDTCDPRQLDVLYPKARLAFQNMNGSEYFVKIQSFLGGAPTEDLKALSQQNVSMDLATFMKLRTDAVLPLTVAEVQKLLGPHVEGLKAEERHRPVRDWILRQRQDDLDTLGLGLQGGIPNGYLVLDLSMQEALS
koff,响应,Binder
0.000188 s⁻¹,0.37,"MN单链抗体 (scFv MN, wild type) (scFv, V domains shown) VH: QVQLQQPGAELVKPGASMKLSCKASGYTFTSYWMHWVKQRPGQGLEWIGMIHPNSDNTIYYEKFKSKATLTVDKSSSTAYMQLSSLTSEDSAVYYCAIIITPVVPKFDYWGQGTTLTVSS VL: DIVMTQSHQFMSTSVGDRVSVTCKASHDVGTSVAWYQQKPGQSPKLLIYWASTRHTGVPDRFTGSGSGTDFTLTISNVQSEDLADYFCQQYSSYPLTFGAGTKLELK"

# Target: MSLN抗原 (Mesothelin, MSLN-Biotin) (human) (UniProt Q13421)
# Assay: BLI (Octet RED96), MSLN-Biotin on AR2G sensor, TG1 periplasmic scFv as analyte (表2.2)
koff,响应,Binder
0.000221 s⁻¹,0.38,"MN单链抗体 (scFv MN, wild type) (scFv, V domains shown) VH: QVQLQQPGAELVKPGASMKLSCKASGYTFTSYWMHWVKQRPGQGLEWIGMIHPNSDNTIYYEKFKSKATLTVDKSSSTAYMQLSSLTSEDSAVYYCAIIITPVVPKFDYWGQGTTLTVSS VL: DIVMTQSHQFMSTSVGDRVSVTCKASHDVGTSVAWYQQKPGQSPKLLIYWASTRHTGVPDRFTGSGSGTDFTLTISNVQSEDLADYFCQQYSSYPLTFGAGTKLELK"

# Target: MSLN抗原 (Mesothelin, MSLN-Biotin) (human) (UniProt Q13421)
# Assay: BLI (Octet RED96), MSLN-Biotin on AR2G sensor, TG1 periplasmic scFv as analyte
Binder,koff,响应
"2G8 (scFv, V domains shown) VH: QVQLQQPGAELVKPGASMKLSCKASGTQFANYRMHWVKQRPGQGLEWIGMIHPNSDNTIYYEKFKSKATLTVDKSSSTAYMQLSSLTSEDSAVYYCAIIITPVVPKFDYWGQGTTLTVSS VL: DIVMTQSHQFMSTSVGDRVSVTCKASHDVGTSVAWYQQKPGQSPKLLIYWASTRHTGVPDRFTGSGSGTDFTLTISNVQSEDLADYFCQQYSSYPLTFGAGTKLELK",0.00111 s⁻¹,1.11
"3E12 (scFv, V domains shown) VH: QVQLQQPGAELVKPGASMKLSCKASGYTFTSYWMHWVKQRPGQGLEWIGMINLVSSRTIYYEKFKSKATLTVDKSSSTAYMQLSSLTSEDSAVYYCAIIITPVVPKFDYWGQGTTLTVSS VL: DIVMTQSHQFMSTSVGDRVSVTCKASHDVGTSVAWYQQKPGQSPKLLIYWASTRHTGVPDRFTGSGSGTDFTLTISNVQSEDLADYFCQQYSSYPLTFGAGTKLELK",9.73e-05 s⁻¹,1.04
"4A12 (scFv, V domains shown) VH: QVQLQQPGAELVKPGASMKLSCKASGYTFTSYWMHWVKQRPGQGLEWIGMIHPNSDNTIYYEKFKSKATLTVDKSSSTAYMQLSSLTSEDSAVYYCAIVILPFLPKFDYWGQGTTLTVSS VL: DIVMTQSHQFMSTSVGDRVSVTCKASHDVGTSVAWYQQKPGQSPKLLIYWASTRHTGVPDRFTGSGSGTDFTLTISNVQSEDLADYFCQQYSSYPLTFGAGTKLELK",0.0001 s⁻¹,0.91
"4C11 (scFv, V domains shown) VH: QVQLQQPGAELVKPGASMKLSCKASGYTFTSYWMHWVKQRPGQGLEWIGMIHLNSAQTIYYEKFKSKATLTVDKSSSTAYMQLSSLTSEDSAVYYCAIIITPVVPKFDYWGQGTTLTVSS VL: DIVMTQSHQFMSTSVGDRVSVTCKASHDVGTSVAWYQQKPGQSPKLLIYWASTRHTGVPDRFTGSGSGTDFTLTISNVQSEDLADYFCQQYSSYPLTFGAGTKLELK",0.000133 s⁻¹,1.16
"2F9 (scFv, V domains shown) VH: QVQLQQPGAELVKPGASMKLSCKASGYTFTSYWMHWVKQRPGQGLEWIGGIEQNSSETIYYEKFKSKATLTVDKSSSTAYMQLSSLTSEDSAVYYCAIIITPVVPKFDYWGQGTTLTVSS VL: DIVMTQSHQFMSTSVGDRVSVTCKASHDVGTSVAWYQQKPGQSPKLLIYWASTRHTGVPDRFTGSGSGTDFTLTISNVQSEDLADYFCQQYSSYPLTFGAGTKLELK",0.00166 s⁻¹,0.13
"2D9 (scFv, V domains shown) VH: QVQLQQPGAELVKPGASMKLSCKASGYTFTSYWMHWVKQRPGQGLEWIGMIHAQSDNTIYYEKFKSKATLTVDKSSSTAYMQLSSLTSEDSAVYYCAIIITPVVPKFDYWGQGTTLTVSS VL: DIVMTQSHQFMSTSVGDRVSVTCKASHDVGTSVAWYQQKPGQSPKLLIYWASTRHTGVPDRFTGSGSGTDFTLTISNVQSEDLADYFCQQYSSYPLTFGAGTKLELK",0.000217 s⁻¹,1.25
"3F9 (scFv, V domains shown) VH: QVQLQQPGAELVKPGASMKLSCKASGYTFTSYWMHWVKQRPGQGLEWIGMIHPNSQNTIYYEKFKSKATLTVDKSSSTAYMQLSSLTSEDSAVYYCAIIITPVVPKFDYWGQGTTLTVSS VL: DIVMTQSHQFMSTSVGDRVSVTCKASHDVGTSVAWYQQKPGQSPKLLIYWASTRHTGVPDRFTGSGSGTDFTLTISNVQSEDLADYFCQQYSSYPLTFGAGTKLELK",0.000164 s⁻¹,1.38

# Next, values leading:
koff,响应,Binder
0.000356 s⁻¹,0.93,"8C9 (scFv, V domains shown) VH: QVQLQQPGAELVKPGASMKLSCKASGYTFTSYWMHWVKQRPGQGLEWIGMIHPNSDNTIYYEKFKSKATLTVDKSSSTAYMQLSSLTSEDSAVYYCAIIITPVVPKFDYWGQGTTLTVSS VL: DIVMTQSHQFMSTSVGDRVSVTCMASHDVGTSVAWYQQKPGQSPKLLIYWASTRHTGVPDRFTGSGSGTDFTLTISNVQSEDLADYFCQQYSSYPLTFGAGTKLELK"
0.000401 s⁻¹,1.02,"7E10 (scFv, V domains shown) VH: QVQLQQPGAELVKPGASMKLSCKASGYTFTSYWMHWVKQRPGQGLEWIGMIHPNSDNTIYYEKFKSKATLTVDKSSSTAYMQLSSLTSEDSAVYYCAIIITPVVPKFDYWGQGTTLTVSS VL: DIVMTQSHQFMSTSVGDRVSVTCKASHDVGTSVAWYQQKPGQSPKLLIYNASSRGGGVPDRFTGSGSGTDFTLTISNVQSEDLADYFCQQYSSYPLTFGAGTKLELK"
0.000294 s⁻¹,0.97,"9F5 (scFv, V domains shown) VH: QVQLQQPGAELVKPGASMKLSCKASGYTFTSYWMHWVKQRPGQGLEWIGMIHPNSDNTIYYEKFKSKATLTVDKSSSTAYMQLSSLTSEDSAVYYCAIIITPVVPKFDYWGQGTTLTVSS VL: DIVMTQSHQFMSTSVGDRVSVTCKASHDVGTSVAWYQQKPGQSPKLLIYQASKKEKGVPDRFTGSGSGTDFTLTISNVQSEDLADYFCQQYSSYPLTFGAGTKLELK"
0.000613 s⁻¹,0.73,"5F7 (scFv, V domains shown) VH: QVQLQQPGAELVKPGASMKLSCKASGYTFTSYWMHWVKQRPGQGLEWIGMIHPNSDNTIYYEKFKSKATLTVDKSSSTAYMQLSSLTSEDSAVYYCAIIITPVVPKFDYWGQGTTLTVSS VL: DIVMTQSHQFMSTSVGDRVSVTCKASHDVGTSVAWYQQKPGQSPKLLIYWASTRHTGVPDRFTGSGSGTDFTLTISNVQSEDLADYFCQQYASYPLSFGAGTKLELK"
0.000395 s⁻¹,0.94,"7D5 (scFv, V domains shown) VH: QVQLQQPGAELVKPGASMKLSCKASGYTFTSYWMHWVKQRPGQGLEWIGMIHPNSDNTIYYEKFKSKATLTVDKSSSTAYMQLSSLTSEDSAVYYCAIIITPVVPKFDYWGQGTTLTVSS VL: DIVMTQSHQFMSTSVGDRVSVTCKASHDVGTSVAWYQQKPGQSPKLLIYKASNNKKGVPDRFTGSGSGTDFTLTISNVQSEDLADYFCQQYSSYPLTFGAGTKLELK"
0.000321 s⁻¹,0.96,"4D7 (scFv, V domains shown) VH: QVQLQQPGAELVKPGASMKLSCKASGYTFTSYWMHWVKQRPGQGLEWIGMIHPNSDNTIYYEKFKSKATLTVDKSSSTAYMQLSSLTSEDSAVYYCAITISPVVPKFDYWGQGTTLTVSS VL: DIVMTQSHQFMSTSVGDRVSVTCKASHDVGTSVAWYQQKPGQSPKLLIYWASTRHTGVPDRFTGSGSGTDFTLTISNVQSEDLADYFCQQYSSYPLTFGAGTKLELK"

# Target: MSLN抗原 (Mesothelin, MSLN-Biotin) (human) (UniProt Q13421)
# Assay: BLI (Octet RED96), MSLN-Biotin on AR2G sensor, TG1 periplasmic scFv as analyte (表2.1)
koff,响应,Binder
0.000164 s⁻¹,0.37,"MN单链抗体 (scFv MN, wild type) (scFv, V domains shown) VH: QVQLQQPGAELVKPGASMKLSCKASGYTFTSYWMHWVKQRPGQGLEWIGMIHPNSDNTIYYEKFKSKATLTVDKSSSTAYMQLSSLTSEDSAVYYCAIIITPVVPKFDYWGQGTTLTVSS VL: DIVMTQSHQFMSTSVGDRVSVTCKASHDVGTSVAWYQQKPGQSPKLLIYWASTRHTGVPDRFTGSGSGTDFTLTISNVQSEDLADYFCQQYSSYPLTFGAGTKLELK"
